T1: CD27 expressed on the cell surface (HT1080_CD27 cells) (human, UniProt P26842 20-260)
T1 sequence (looked up): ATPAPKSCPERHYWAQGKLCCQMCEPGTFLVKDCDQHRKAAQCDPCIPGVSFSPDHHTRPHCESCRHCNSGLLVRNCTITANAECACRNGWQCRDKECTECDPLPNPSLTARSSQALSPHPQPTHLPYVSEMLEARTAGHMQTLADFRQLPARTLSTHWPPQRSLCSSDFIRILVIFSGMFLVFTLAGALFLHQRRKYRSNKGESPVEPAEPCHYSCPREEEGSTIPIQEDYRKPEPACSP

T2: CD27 protein (His-tagged, Sino Biological Inc. 10039-H08B1) (human, UniProt P26842 20-192)
T2 construct: bought; coated onto ELISA plates; also called human CD27; recombinant protein; not shown: His tag
T2 sequence (looked up): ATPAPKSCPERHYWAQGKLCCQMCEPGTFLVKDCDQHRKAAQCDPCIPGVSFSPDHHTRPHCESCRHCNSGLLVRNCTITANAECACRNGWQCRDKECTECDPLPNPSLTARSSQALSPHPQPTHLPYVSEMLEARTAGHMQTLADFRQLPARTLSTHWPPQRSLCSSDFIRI


Tests used:
[1] = target: T1, CD27 expressed on the cell surface …; test: cell-based or functional assay
[2] = target: T1, CD27 expressed on the cell surface …; test: cellular binding assay, HT1080_CD27 cells
[3] = target: T2, CD27 protein (His-tagged, Sino …); test: ELISA on coated His-tagged CD27
Also: test concentration or dose not given here.

IL-8, cross-linked by F(ab')2 fragment [abs. corr.] [1]	IL-8 [abs. corr.] [1]	Cellular binding assay [RFU] [2]	ELISA [abs. corr.] [3]	Binder
1.08 abs. corr.	0.128 abs. corr.	379 RFU	3.13 abs. corr.	P018.S.06.A.C06 (antibody, V domains shown, V regions on human Ig constant parts; also called AB27_102) VH: QQQLEESGGGLVKPGGTLTLPCKASGFTISSDYDMCWVRQAPGKGLEWITCILGGSGGSTWYANWAKGRFTISQSSSTTVTLQMTSLTDADTATYFCTRASGFTYFELWGPGTLVTVSS VL: AQVLTQTPSSVSAAVGGTVTINCQASQSVYNNKNLAWYQQKPGQPPKLLIYYASTLASGVSSRFKGSGSGTQFTLTISDVQSDDAATYYCQGEFSCSSSDCFAFGGGTEVVVK
1.08 abs. corr.	0.308 abs. corr.	414 RFU	3.5 abs. corr.	P018.S.04.A.B05 (antibody, V domains shown, V regions on human Ig constant parts; also called AB27_68) VH: QSVEESGGRLVTPGTPLTLTCTASGFTLSSFYMSWVRQAPGKGLEWIGFIHGHGNTYYASWAKGRFTISKTSTTVDLKIASPTTEDTATYFCARGGHPNMDLWGQGTLVTISS VL: DIVMTQTPSSVEAAVGGTVTIKCQASQNINNYLAWYQQKPGQPPKLLIYYASTLASGVSSRFKGSGSGTEFTLTISDLESDDAATYYCQCSYYDASIFGAFGGGTEVVVR
1.21 abs. corr.	-0.105 abs. corr.	358 RFU	3.5 abs. corr.	P018.S.01.A.G03 (antibody, V domains shown, V regions on human Ig constant parts; also called AB27_22) VH: QSVEESGGRLVTPGTPLTLTCTVSGFSLSSYSMIWVRQAPGKGLEWIGIVYASGSTNYASWAKGRFTISKTSTTVDLKITSPTTEDTATYFCARGDVLYAFDPWGPGTLVTVSS VL: AFELTQTPSSVSAAVGGTVTIKCQASENIYSYLAWYQQKPGQPPKRLIYYASNLASGVSSRFKGSGSGTEFTLTISDLESADAATYYCQYTYSTSPGYIFGGGTEVVVK
1.48 abs. corr.	0.299 abs. corr.	293 RFU	3.13 abs. corr.	P018.S.02.A.A06 (antibody, V domains shown, V regions on human Ig constant parts; also called AB27_28) VH: QSVEESGGRLVKPDESLTLTCTVSGIDLSTYAMGWVRQAPGKGLEYIGMISTGGSAYYASWAQGRFTISRTSTTVDLKMTSLTTEDTATYFCARLRDPYSYRTYFNLWGPGTLVTVSS VL: ALVMTQTPSSVEAAVGGTVTIKCQASLSISSALAWYQQKPGQRPKLLIYDASNLESGVPSRFKGSGSGAHFTLTVSDLESADAATYYCQGPYDTVNNNSFGGGTEVVVK
2.16 abs. corr.	1.78 abs. corr.	175 RFU	3.13 abs. corr.	P018.S.10.A.A04 (antibody, V domains shown, V regions on human Ig constant parts; also called AB27_164) VH: QSVEESGGRLVTPGTPLTLTCTVSGIDLSSNVMTWVRQAPGKGLEWIGYIYASATTYYATWAKGRFTISKTSTTVDLKMTSPTTEDTATYFCARERLASRGDYSDLWGQGTLVTVSS VL: AYDMTQTPASVEAAVGGTVTIKCQASESIGDLLAWYQQKPGQPPKLLIYDASDLASGVPSRFKGSGSGTEFTLTISGVESADAATYYCQQGYTTTSNVDNIFGGGTEVVVK
1.32 abs. corr.	0.486 abs. corr.	365 RFU	3.7 abs. corr.	P018.S.04.A.D04 (antibody, V domains shown, V regions on human Ig constant parts; also called AB27_72) VH: QSVEESGGRLVTPGTPLTLTCTVSGIDLSSYSMTWVRQAPGKGLEWIGFINTGGRGYYASWAKGRFTISKTSTTVDLKITSPTTEDTATYFCARDAGSSRGYYRDLWGQGTLVTVSS VL: AYDMTQTPASVSAAVGGTVTIKCQASEDIYSLLAWYQQKPGQPPKLLIYDASDLASGVPSRFSGSGSGTDYTLTISGVESADAATYYCQQGYTTSTTVDNIFGGGTEVVVK
1.21 abs. corr.	0.325 abs. corr.	206 RFU	3.14 abs. corr.	P018.S.03.A.B05 (antibody, V domains shown, V regions on human Ig constant parts; also called AB27_43) VH: QEQLEESGGDLVKPEGSLTLTCTASGFDLSSRYWICWVRQAPGKGLEWIGCIKTGFSNTWYASWATGRFTFSKASSTTVTLQMTSLTVADTATYFCARIAAAASASDDFRLWGPGTLVTVSS VL: AQVLTQTPSSVSAAVGGTVTISCQSSKSVYNKWLSWFQQKPGQPPKLLIYDASDLASGVPSRFKGSGSGTEFTLTISDVQSDDAATYFCLGHYDSSSDRFVFGGGTEVVVK

Source: patent US20210253725A1 (BIONTECH, published 2021)
